Experiment [1] deals with HLA-A exogenously expressed on cells (K562-HLA-A) (human) (UniProt P04439). Briefly: flow cytometry; IgG1 mAb on cells expressing HLA-A.
The target in experiment [2] is HLA-B exogenously expressed on cells (K562-HLA-B) (human) (UniProt P01889). As to the kind of experiment: flow cytometry; IgG1 mAb on cells expressing HLA-B. A general note: A flow cytometer gives signals particle by particle.
The target of experiment [3] is HLA-C exogenously expressed on cells (K562-HLA-C) (human) (UniProt P10321). As to the kind of experiment: flow cytometry; IgG1 mAb on cells expressing HLA-C.
Chain of HLA-C exogenously expressed on cells (K562-HLA-C) (human) (P10321 25-366): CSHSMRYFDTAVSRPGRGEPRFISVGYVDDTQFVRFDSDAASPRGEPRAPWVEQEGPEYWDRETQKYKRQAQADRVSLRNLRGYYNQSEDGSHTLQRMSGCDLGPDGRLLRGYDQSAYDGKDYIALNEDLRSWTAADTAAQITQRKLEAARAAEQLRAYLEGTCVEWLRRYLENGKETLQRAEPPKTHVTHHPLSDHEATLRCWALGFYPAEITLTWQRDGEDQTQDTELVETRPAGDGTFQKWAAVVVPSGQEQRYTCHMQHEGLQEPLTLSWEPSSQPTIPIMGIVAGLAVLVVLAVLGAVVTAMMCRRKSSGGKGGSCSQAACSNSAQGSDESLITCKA

Chain of HLA-B exogenously expressed on cells (K562-HLA-B) (human) (P01889 25-362): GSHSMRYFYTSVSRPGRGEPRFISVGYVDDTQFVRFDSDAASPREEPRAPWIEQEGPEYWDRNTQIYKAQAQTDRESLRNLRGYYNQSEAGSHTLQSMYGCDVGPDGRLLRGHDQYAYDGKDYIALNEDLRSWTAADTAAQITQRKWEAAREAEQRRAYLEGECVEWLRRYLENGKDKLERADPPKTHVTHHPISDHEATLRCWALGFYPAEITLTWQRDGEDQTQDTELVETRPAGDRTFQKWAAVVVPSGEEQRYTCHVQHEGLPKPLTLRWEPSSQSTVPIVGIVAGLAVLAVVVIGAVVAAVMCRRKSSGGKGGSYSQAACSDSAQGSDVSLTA

B1: MHGB689 (antibody, human IgG1, kappa, V domains shown)
VH: QVQLQQSGPGLVKPSQTLSLTCVISGDSVSSNRAAWNWIRQSPSRGLEWLGRTYYRSKWYNDYAVSVKSRITINSDTSKNQISLQLNSVTPEDTAVYYCARVRPGIPFDYWGQGTTVTVSS
VL: DIQMTQSPDSLAVSLGERATINCESSQSVLFSSNKKNYLAWYQQKPGQPPKLLIYWASTRESGVPDRFSGSGSGTDFTLTINRLQAEDVAVYYCQQYNSTPWTFGQGTKVEIKR
On to B1, for which the Geomean fluorescence signal (maximum value for binding) amounted to 2540 in experiment [1], 5790 in experiment [2] and 266 in experiment [3].

For the origin of these results see patent publication US20220033505A1.
